Test results taken from patent publication US20030192074A1.

Experiments:
[1] = molecular target: AvrMla1 avirulence gene product of Erysiphe graminis f. sp. hordei (Erysiphe (=Blumeria) graminis f sp hordei)
[2] = molecular target: AvrMla6 avirulence gene product of Erysiphe graminis f. sp. hordei (Erysiphe (=Blumeria) graminis f sp hordei)
[3] = molecular target: AvrMla6 avirulence gene product of Erysiphe graminis f. sp. hordei (Erysiphe (=Blumeria) graminis f sp hordei); remark: listed apart in the source

MLA1 polypeptide (product of R gene A, Mla1, of barley line CI-16137, AlgR Mla1)
percent of GFP-Mlo expressing cells with an attached spore that support a fungal colony (3-component single-cell assay, mlo-5 barley leaves, isolate K1) [1]: 9.3%
percent of GFP-Mlo expressing cells with an attached spore that support a fungal colony (3-component single-cell assay, mlo-5 barley leaves, isolate A6) [2]: 47.1%
percent of GUS stained wheat (CERCO) cells with an attached spore that contain haustorium, isolate A6 [3]: 23.9%

MLA6 polypeptide (product of Mla6 of barley line C.I. 16151)
percent of GFP-Mlo expressing cells with an attached spore that support a fungal colony (3-component single-cell assay, mlo-5 barley leaves, isolate K1) [1]: 46.5%
percent of GFP-Mlo expressing cells with an attached spore that support a fungal colony (3-component single-cell assay, mlo-5 barley leaves, isolate A6) [2]: 9.4%
percent of GUS stained wheat (CERCO) cells with an attached spore that contain haustorium, isolate A6 [3]: 9.2%
